In PMC4182809:

Molecular target: plastidic glutamine synthetase (GS2), spinach, 420 kDa stromal holoenzyme (spinach (Spinacia oleracea), endogenous in leaf chloroplasts)
Assay: native gel or EMSA; BN-PAGE (4-16% Bis-Tris gradient gel, 4°C) of stroma and thylakoid proteins of chloroplasts, western blot, with 2D SDS-PAGE; extraction in 20 mM Hepes-KOH pH 7.5, or potassium phosphate pH 6 or pH 8 with or without 0.1 M NaCl, 10 mM DTT or 10 mM ascorbic acid

## plastidic glutamine synthetase (GS2), spinach, 420 kDa stromal holoenzyme
  stoichiometry N: 10
